In the supplement of paper PMC9170038:

Test system: MS2 coat protein
Assay: apparent KD of MS2 coat protein; designed switch direction (-1 OFF switch, 1 ON switch): -1; higher = weaker reporter binding
Summary of the method: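 The reported apparent KD is a per-design median over clusters, from curve fits of normalised cluster fluorescence. Protein titrations used SNAP-549-labelled MS2 coat protein, doubled from 0.7 or 1.5 nM to 3 µM, in Tris-HCl pH 7.5 buffer with KCl, MgCl2, BSA, DTT, tRNA and Tween-20, with no input, 200 uM small-molecule ligand, or an oligonucleotide input. The RNA switches were transcribed on Illumina chips by stalled E. coli RNA polymerase.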

[1] = input ligand: microRNA oligo, concentration not stated
[2] = Eterna round: R95, input ligand: microRNA oligo, concentration not stated

Sequence	apparent KD of MS2 coat protein [1]	apparent KD of MS2 coat protein (input ligand: FMN 200 uM)	apparent KD of MS2 coat protein (input ligand: none)	further results
AGCGUGGAGACAGGAUAUGAGAAUAGAUAGAAAUCAGAAGGGUCACAUGAGGAUCACCCAUGUAAAGUCUUGAGGAUGAGUGAU [Prohibition 3 - Jieux - Exclusion NG 1] (Eterna round: R96, puzzle: Exclusion NG 1)	70.4 nM			
ACUUACUGAGGAUAUACUUAGAUUUACAUGAGGAUCACCCAUGUUCCUCUAUGUAUAUAUGUAGAAGGCAGAAGUU [Mat - Exclusion 5 - JL Mod - D49] (Eterna round: R97, puzzle: Exclusion 5)		216 nM	38.1 nM	
GGUGAGCUAGGAUAUGCUUUGGGCCCGCAUUCCUUCGAUAAACUUGAGGAUCACCCAAGUAGAAGGAGCUUGCC [salish99_ex2_r4_031] (Eterna round: R97, puzzle: Exclusion 2)		30.4 nM	17 nM	
CUCCGGCGUGUAGGAUAUGGAUCCGAUUAGGAUCCAGAAGGACAUGAGGAUCACCCAUGUACAUGUCGGCGGUCGUCACCGGGC [salish99_ExNG1_r04_209] (Eterna round: R96, puzzle: Exclusion NG 1)	14.4 nM	34 nM	20.1 nM	
ACGUAUAGAGGAUAUACAGAAUAUUACAUGAGGAUCACCCAUGUUCUUCAAUGUAUAUUUGUAGAAGGCUAAUGAA [EX-5 Malc#8] (puzzle: Exclusion 5)				apparent KD of MS2 coat protein [2]: 62.3 nM
AGGUCCUUCUGGAGACAUGAGGAUCACCCAUGUCGGGUCAGCGAGGAUAUCGGUCAAUAAUGUGACGAGAAGGCGCGGACCGAU [Ex NG3 #57] (Eterna round: R96, puzzle: Exclusion NG 3)	17.1 nM	55.5 nM	19.9 nM	
GAUGUUCUGGUCAGGAUAUGCAUCCGUCGGCCGGAGCAGAAGGGACAUGAGGAUCACCCAUGUGCGGGUACAAA [Onvegeor] (puzzle: Brourd's mod of Exclusion 4)				apparent KD of MS2 coat protein [2]: 38.4 nM
GCGGUAUUCCCUGGAGUACCAUACAUGAGGAUCACCCAUGUAUAGGAUAUUGCAGGAGACAGCUGCGAGAAGGGUACAGGGUGU [Dierceza] (Eterna round: R96, puzzle: Exclusion NG 3)	14.4 nM	26.6 nM	15.9 nM	
UUGUACCGGUGAGGAUAUUUUUGAUAGAACUUUAUGAUAUACAUGAGGAUCACCCAUGUUACUUUAAAGAAGGCAUCGGAUUAU [JL JR Sub091 mod 2] (Eterna round: R96, puzzle: Exclusion NG 2)	14.3 nM			
CUUUUGUGAGGAUAUCAGUAGUUAAAAAAUAAAAUUACUACUGAGAAGGCACAUGAGGAUCACCCAUGUUCCUC [salish99_ex4_r3_016] (puzzle: Exclusion 4)				apparent KD of MS2 coat protein [2]: 40.5 nM
CGUUGGCGAGGAUAUACAUGAGGAUCACCCAUGUGAGAGAAAAAAGUGAGGAAGAAAAGUAGAAGGCGCUGACC [salish99_ex3_r3_049] (puzzle: Exclusion 3)				apparent KD of MS2 coat protein (Eterna round: R95, input ligand: FMN 200 uM): 110 nM; apparent KD of MS2 coat protein [2]: 42.7 nM; apparent KD of MS2 coat protein (Eterna round: R95, input ligand: none): 45.9 nM
ACAUGACUGCUAGGAUAUAGAUGACAUGAGGAUCACCCAUGUUAUCCCAUGUUGACGGAAACCGACUAGAAGGAGCAGCAUAUG [Ex NG2 #9] (Eterna round: R96, puzzle: Exclusion NG 2)	43.5 nM	118 nM	45.3 nM	
UAACAAGCUUUAAGAUCCUACAUGAGGAUCACCCAUGUGCUCGUCUUAUAACGUACUGUGACGAAAGUCACGGUACG [JL TOV1 3.17] (Eterna round: R97, puzzle: Sensor, turn-off variant 1)		206 nM	160 nM	
UUUUAACAUGAGGAUCACCCAUGUGAGGAUAUCGAAAUUUAUAUUAAUAUUAUUUUAUCGAGAAGGCACAUUUU [JMF 48] (puzzle: Exclusion 1)				apparent KD of MS2 coat protein [2]: 122 nM
CAUUUGUGAGGAUAUCAGGUGUGCUAGCGUACUGGUACAUCUGAGAAGGCACAUGAGGAUCACCCAUGUUCCUU [Mat - Exclusion 4 - Mod of JL - D36] (puzzle: Exclusion 4)				apparent KD of MS2 coat protein [2]: 12.8 nM
ACAUGUCAUUGAGGAUAUUGCAAACAUGAGGAUCACCCAUGUAUACGGAUGCUCUUACGUGGGUUCGAGAAGGCGAUGUACAUU [Ex NG2 #92] (Eterna round: R96, puzzle: Exclusion NG 2)	345 nM	819 nM	429 nM	
UACAAGCUUUUAAGAUCCCACAUGAGGAUCACCCAUGUGCUCGUCUUAUAACGUACUGUGACGAAAGUCACGGUACG [JL TOV1 3.24] (Eterna round: R97, puzzle: Sensor, turn-off variant 1)		15.8 nM	24.3 nM	

Sequence	apparent KD of MS2 coat protein [1]	apparent KD of MS2 coat protein (input ligand: FMN 200 uM)	apparent KD of MS2 coat protein (input ligand: none)	further results
AAUGCGGACAAAGGAUAUUGCGGUGACCGGCUCGGCGUACCGAGCCUACAUGAGGAUCACCCAUGUAAGAAGGUUGUCGCAAAA [Mat - Exclusion NG 2 - Mod of JL - D75] (Eterna round: R96, puzzle: Exclusion NG 2)	13.8 nM	16.6 nM	17.5 nM	
UACAUGAGGAUCACCCAUGUUUUGUCGUGUAUGGUAUUUAUCUAGGAUAUCAAUGUAUUUAUUCAUGAGAAGGAGAAUAUUAAU [JMF's solution 48] (Eterna round: R96, puzzle: Exclusion NG 3)	28.3 nM	32.4 nM	33.7 nM	
AUGUUGUCAGGAUAUCGUUAAUUUAGUUGUUUGUAUUAGUUCGAGAAGGGACAUGAGGAUCACCCAUGUUUGAA [Ex4 #35] (Eterna round: R97, puzzle: Exclusion 4)		41.2 nM	34.8 nM	
ACUUAUAGAGGAUAUACAGUUAAUUACAUGAGGAUCACCCAUGUUCUUCAAUGUAUAUAAGUAGAAGGCAAAGGAA [Mat - Exclusion 5 - Eli Mod - D3] (Eterna round: R97, puzzle: Exclusion 5)		23.2 nM	16.2 nM	
GGCAGUCGAGGAUAUACGAUCGUGCUUCGGCACGUAAGAUCACAUGAGGAUCACCCAUGUAGAAGGCGACUGCC [Mod 2 - Jieux - Exclusion 2] (Eterna round: R97, puzzle: Exclusion 2)		214 nM	33.4 nM	
AGAUAGUGCUGAGGAUAUCUGAAUAGAAAGAAAAGAGAAGGCGGACAUGAGGAUCACCCAUGUGAGGUCUUGAGACUACAUGGU [Prohibition 37 - Jieux - Exclusion NG 1] (Eterna round: R96, puzzle: Exclusion NG 1)	42.9 nM	393 nM	80.4 nM	
ACCUUACAUGAGGAUCACCCAUGUCAGGAUAUCUCGGGCGGCUGGAGACCAGCCGCCCAGAGAAGGGACGAGGA [Engeisbe] (puzzle: Exclusion 1)				apparent KD of MS2 coat protein [2]: 12.2 nM
AGGGAGUCAGGAUAUUAUUUUUAGCGGGAUAACGCUGAGGGUGAGAAGGGACAUGAGGAUCACCCAUGUUUUGA [JR_Ex4_Sub075] (Eterna round: R97, puzzle: Exclusion 4)		167 nM	183 nM	
GGAUCGAGUGUGAGGAUAUGCUGGUCCUUGGAUCAGCAGAAGGCACAUGAGGAUCACCCAUGUGAAGACGAUCC [Mat - Exclusion 4 - JL Mod - D73] (puzzle: Brourd's mod of Exclusion 4)				apparent KD of MS2 coat protein [2]: 21.2 nM
AAAGAACAUGAGGAUCACCCAUGUUAGGAUAUAGUAGCAGUGUAUCUAAAGACAGCAGCUAGAAGGAGCAUGAG [Eternabot (Original) Solution 46] (Eterna round: R97, puzzle: Exclusion 1)		77.4 nM	74.3 nM	
GUCACUAGAGGAUAUACAAUGGUAUAUGAUCCUAGAGACAUACAUGAGGAUCACCCAUGUAGAAGGCUAGUAAU [Exclusion 2 - 6] (puzzle: Exclusion 2)				apparent KD of MS2 coat protein [2]: 68.7 nM
UUAAAUCAUGUAGGAUAUGCGUGGCGAAGCUAUGCAGAAGGACAUGAGGAUCACCCAUGUGCUUCCGUCUGCGUACAGAUGGAA [JL Eng1 1.08 mod 3] (Eterna round: R96, puzzle: Exclusion NG 1)	80.6 nM	81.4 nM	109 nM	
GAAGGGCGUCUAGGAUAUAGUAUACGGCGAACAUGAGGAUCACCCAUGUGUCCGAAUGCGGCGAGCUAGAAGGAGAAUUCGCCC [Enuseszave] (Eterna round: R96, puzzle: Exclusion NG 2)	33.4 nM	72.4 nM	49.1 nM	
AACGAGUGAGGAUAUCUUGACGGUUUGCAUCAGGCCCUCACAGAGAAGGCACUUGAGGAUCACCCAAGUGACCA [Eredgeinus] (Eterna round: R97, puzzle: Exclusion 4)		16.5 nM	14.2 nM	
UAUUAGCAAGCAAGAUCCCACAUGAGGAUCACCCAUGUGCUCGUCUUAUAAGGUACUGUGACGAUAGUCACGGUACC [Mat - Sensor, turn-off var - Eli Mod - D46] (Eterna round: R97, puzzle: Sensor, turn-off variant 1)		60.5 nM	54.1 nM	
GGCCGUAAUAAGGAUAUCACUAGCUGCGGCUAGUGAGAAGGUAUUACAUGAGGAUCACCCAUGUGGUCAGGCCA [E6/4-B3] (Eterna round: R97, puzzle: Exclusion 6)		1060 nM	284 nM	
AAAGCAAAGACAGGAUAUCGACCCAGUGAUUUUCGUGCCGGAAACAUGAGGAUCACCCAUGUGUACGAGAAGGGUCAAAACAAC [Uslebeteat] (Eterna round: R96, puzzle: Exclusion NG 2)	17.1 nM	61.9 nM	22.3 nM	
